We go through 64 substances from US20170037111A1, “Novel peptides and combination of peptides for use in immunotherapy against ovarian cancer and other cancers” (immatics biotechnologies GmbH, priority 2015, published 2017).

In this assay the target is HLA-A*02:01 (Homo sapiens, UniProt P04439, D140Y/D185E/D98H/E176V/E277Q/G131W/G231S/I119V/I121R/I166T/I218V/L300P/L318F/N151K/N90K/P208A/P217A/Q86G/Q94H/R138H/R169H/T345S). In words: MHC binding assay (UV-ligand exchange, β2m ELISA, peptide exchange yield). The conditions noted are these: MHC class I binding score; binding to HLA-A*02:01 ranged by peptide exchange yield (UV-ligand exchange, β2m ELISA). The text has this:
Candidate peptides for T cell based therapies according to the present invention were further tested for their MHC binding capacity (affinity). The individual peptide-MHC complexes were produced by UV-ligand exchange, where a UV-sensitive peptide is cleaved upon UV-irradiation, and exchanged with the peptide of interest as analyzed. Only peptide candidates that can effectively bind and stabilize the peptide-receptive MHC molecules prevent dissociation of the MHC complexes. To determine the yield of the exchange reaction, an ELISA was performed based on the detection of the light chain (β2m) of stabilized MHC complexes. The assay was performed as generally described in Rodenko et al. (Rodenko et al., 2006).
96 well MAXISorp plates (NUNC) were coated over night with 2 ug/ml streptavidin in PBS at room temperature, washed 4× and blocked for 1h at 37° C. in 2% BSA containing blocking buffer. […] Peptide-MHC monomers of the UV-exchange reaction were diluted 100 fold in blocking buffer. Samples were incubated for 1h at 37° C., washed four times, incubated with 2 ug/ml HRP conjugated anti-β2m for 1h at 37° C., washed again and detected with TMB solution that is stopped with […]. Absorption was measured at 450 nm. Candidate peptides that show a high exchange yield (preferably higher than 50%, most preferred higher than 75%) are generally preferred for a generation and production of antibodies or fragments thereof, and/or T cell receptors or fragments thereof, as they show sufficient avidity to the MHC molecules and prevent dissociation of the MHC complexes.
On the technique in general: In an ELISA, binding on a coated surface is turned into a signal by an enzyme label.

With “575 (YLISQVEGHQV; listed as Homo sapiens) [compound 575]”, the Peptide exchange result is given as “″+++″ (≧50% = +++)”.

For “161 (ALLEGVNTV; listed as Homo sapiens) [compound 161]”, the Peptide exchange result is “″+++″ (≧50% = +++)”.

For “477 (ALLPASGQIAL; listed as Homo sapiens) [compound 477]”, the Peptide exchange entry was “″+++″ (≧50% = +++)”.

In the case of “355 (SIQQSIERLLV; listed as Homo sapiens) [compound 355]”, the Peptide exchange entry was “″++″ (≧20% = ++)”.

Consider “362 (TLYGLSVLL; listed as Homo sapiens) [compound 362]”, for which the Peptide exchange result was “″+++″ (≧50% = +++)”.

As for “383 (ALLELENSVTL; listed as Homo sapiens) [compound 383]”, the Peptide exchange entry is reported as “″+++″ (≧50% = +++)”.

As for “561 (YLQLTQSEL; listed as Homo sapiens) [compound 561]”, the Peptide exchange entry is given as “″+++″ (≧50% = +++)”.

Regarding “405 (ALYDVFLEV; listed as Homo sapiens) [compound 405]”, the Peptide exchange result is “″++″ (≧20% = ++)”.

Take “513 (SLWPSPEQL; listed as Homo sapiens) [compound 513]”: the Peptide exchange result is on record as “″++″ (≧20% = ++)”.

On to “364 (LLQNEQFEL; listed as Homo sapiens) [compound 364]”, for which the Peptide exchange result was “″+++″ (≧50% = +++)”.

As for “330 (QLALKVEGV; listed as Homo sapiens) [compound 330]”, the Peptide exchange entry is “″+++″ (≧50% = +++)”.

Turning to “484 (SLIEKVTQL; listed as Homo sapiens) [compound 484]”, the Peptide exchange entry was “″+++″ (≧50% = +++)”.

With “144 (YIMEPSIFNTL; listed as Homo sapiens) [compound 144]”, the Peptide exchange entry was “″+++″ (≧50% = +++)”.

Regarding “392 (ALLHPQGFEV; listed as Homo sapiens) [compound 392]”, the Peptide exchange entry is given as “″++″ (≧20% = ++)”.

In the case of “101 (ILVGGGALATV; listed as Homo sapiens) [compound 101]”, the Peptide exchange result is given as “″+++″ (≧50% = +++)”.

On to “77 (ILVEADGAWVV; listed as Homo sapiens) [compound 77]”, for which the Peptide exchange result is given as “″++++″ (≧75% = ++++)”.

With “248 (FLFPNQYVDV; listed as Homo sapiens) [compound 248]”, the Peptide exchange result was “″+++″ (≧50% = +++)”.

As for “23 (VLLDDIFAQL; listed as Homo sapiens) [compound 23]”, the Peptide exchange result is on record as “″+++″ (≧50% = +++)”.

With “110 (FLSQVDFEL; listed as Homo sapiens) [compound 110]”, the Peptide exchange result is given as “″+++″ (≧50% = +++)”.

For “408 (VLDDSIYLV; listed as Homo sapiens) [compound 408]”, the Peptide exchange entry is “″++″ (≧20% = ++)”.

Regarding “298 (VMITKLVEV; listed as Homo sapiens) [compound 298]”, the Peptide exchange result is on record as “″+++″ (≧50% = +++)”.

Turning to “568 (TLYDIAHTPGV; listed as Homo sapiens) [compound 568]”, the Peptide exchange entry is “″++++″ (≧75% = ++++)”.

Regarding “224 (TLIDAQWVL; listed as Homo sapiens) [compound 224]”, the Peptide exchange result is given as “″+++″ (≧50% = +++)”.

Take “147 (SLLEAVSFL; listed as Homo sapiens) [compound 147]”: the Peptide exchange result was “″+++″ (≧50% = +++)”.

As to “314 (ALIAEGIALV; listed as Homo sapiens) [compound 314]”, the Peptide exchange entry is on record as “″+++″ (≧50% = +++)”.

With “541 (SMLEPVPEL; listed as Homo sapiens) [compound 541]”, the Peptide exchange result is recorded as “″+++″ (≧50% = +++)”.

Regarding “194 (ALPLFVITV; listed as Homo sapiens) [compound 194]”, the Peptide exchange entry was “″+++″ (≧50% = +++)”.

“295 (VLDRESPNV; listed as Homo sapiens) [compound 295]”: the Peptide exchange result was “″+++″ (≧50% = +++)”.

As for “154 (ALDDGTPAL; listed as Homo sapiens) [compound 154]”, the Peptide exchange entry is listed as “″++″ (≧20% = ++)”.

On to “553 (SLLNQDLHWSL; listed as Homo sapiens) [compound 553]”, for which the Peptide exchange entry is reported as “″++++″ (≧75% = ++++)”.

Consider “69 (FQLDPSSGVLVTV; listed as Homo sapiens) [compound 69]”, for which the Peptide exchange result is on record as “″+++″ (≧50% = +++)”.

With “324 (FLYDEIEAEV; listed as Homo sapiens) [compound 324]”, the Peptide exchange result is recorded as “″+++″ (≧50% = +++)”.

With “107 (FLQPVDDTQHL; listed as Homo sapiens) [compound 107]”, the Peptide exchange result was “″+++″ (≧50% = +++)”.

Turning to “218 (SALEELVNV; listed as Homo sapiens) [compound 218]”, the Peptide exchange result is given as “″++″ (≧20% = ++)”.

As to “42 (VLLQKIVSA; listed as Homo sapiens) [compound 42]”, the Peptide exchange result is “″+++″ (≧50% = +++)”.

As for “246 (LLWEVVSQL; listed as Homo sapiens) [compound 246]”, the Peptide exchange result is “″+++″ (≧50% = +++)”.

Turning to “578 (FLDPGGPMMKL; listed as Homo sapiens) [compound 578]”, the Peptide exchange entry was “″+++″ (≧50% = +++)”.

With “187 (RQISIRGIVGV; listed as Homo sapiens) [compound 187]”, the Peptide exchange result is reported as “″+++″ (≧50% = +++)”.

With “31 (YLAPELFVNV; listed as Homo sapiens) [compound 31]”, the Peptide exchange result is “″++″ (≧20% = ++)”.

Take “542 (RVWDISTVSSV; listed as Homo sapiens) [compound 542]”: the Peptide exchange entry was “″+++″ (≧50% = +++)”.

Take “299 (YLLETSGNL; listed as Homo sapiens) [compound 299]”: the Peptide exchange entry was “″+++″ (≧50% = +++)”.

“32 (KLDDLTQDLTV; listed as Homo sapiens) [compound 32]”: the Peptide exchange entry is given as “″++″ (≧20% = ++)”.

Take “225 (SLLKVLPAL; listed as Homo sapiens) [compound 225]”: the Peptide exchange result is on record as “″+++″ (≧50% = +++)”.

For “606 (ALWETEVYI; listed as Homo sapiens) [compound 606]”, the Peptide exchange result is on record as “″+++″ (≧50% = +++)”.

Take “206 (VLQEGKLQKLAQL; listed as Homo sapiens) [compound 206]”: the Peptide exchange entry is listed as “″+++″ (≧50% = +++)”.

On to “491 (GLNDRSDAV; listed as Homo sapiens) [compound 491]”, for which the Peptide exchange entry was “″++″ (≧20% = ++)”.

With “41 (SLMPHIPGL; listed as Homo sapiens) [compound 41]”, the Peptide exchange entry was “″+++″ (≧50% = +++)”.

Take “586 (KLKPGDLVGV; listed as Homo sapiens) [compound 586]”: the Peptide exchange result is “″+++″ (≧50% = +++)”.

“375 (SLTETIEGV; listed as Homo sapiens) [compound 375]”: the Peptide exchange result is reported as “″++″ (≧20% = ++)”.

In the case of “18 (YLVAKLVEV; listed as Homo sapiens) [compound 18]”, the Peptide exchange entry was “″++″ (≧20% = ++)”.

For “616 (VLIDEVESL; listed as Homo sapiens) [compound 616]”, the Peptide exchange entry was “″+++″ (≧50% = +++)”.

On to “34 (ILVEADSLWVV; listed as Homo sapiens) [compound 34]”, for which the Peptide exchange result is listed as “″+++″ (≧50% = +++)”.

For “599 (YLLNDASLISV; listed as Homo sapiens) [compound 599]”, the Peptide exchange entry was “″+++″ (≧50% = +++)”.

“9 (GAAKDLPGV; listed as Homo sapiens) [compound 9]”: the Peptide exchange entry is “″++″ (≧20% = ++)”.

With “579 (NLMEMVAQL; listed as Homo sapiens) [compound 579]”, the Peptide exchange entry is given as “″++″ (≧20% = ++)”.

On to “88 (FLLVGDLMAV; listed as Homo sapiens) [compound 88]”, for which the Peptide exchange entry is “″+++″ (≧50% = +++)”.

As for “476 (ALMERTGYSMV; listed as Homo sapiens) [compound 476]”, the Peptide exchange entry is “″+++″ (≧50% = +++)”.

On to “159 (GLVGNPLPSV; listed as Homo sapiens) [compound 159]”, for which the Peptide exchange entry is listed as “″++++″ (≧75% = ++++)”.

Take “539 (ALFDAQAQV; listed as Homo sapiens) [compound 539]”: the Peptide exchange result was “″+++″ (≧50% = +++)”.

“462 (KLAKQPETV; listed as Homo sapiens) [compound 462]”: the Peptide exchange entry is on record as “″+++″ (≧50% = +++)”.

For the substance “365 (YVIDQGETDVYV; listed as Homo sapiens) [compound 365]”, the Peptide exchange entry is “″+++″ (≧50% = +++)”.

Regarding “160 (FLFDEEIEQI; listed as Homo sapiens) [compound 160]”, the Peptide exchange result was “″+++″ (≧50% = +++)”.

Consider “158 (KLFDVDEDGYI; listed as Homo sapiens) [compound 158]”, for which the Peptide exchange entry is “″+++″ (≧50% = +++)”.

For the substance “178 (ALTEIAFVV; listed as Homo sapiens) [compound 178]”, the Peptide exchange result is on record as “″++++″ (≧75% = ++++)”.
